From patent US20260209345A1 (IOMX THERAPEUTICS, published 2026)
Substitutions are numbered along the chain they refer to. Values belong to the binder of their own block, whether it stands above or below them.

How the values were obtained:
[1] = biological target: T1, recombinant LILRB1 ECD (human, UniProt Q8NHL6 24-461); assay: ELISA, LILRB1 ECD binding to HLA-G-Fc
T1 construct: also called biotinylated LILRB1 ECD
Method: (§1) HLA-G inhibition was tested by ELISA. 384-well Maxisorp plates were coated with 2 ug/mL B2M-HLA-G fused to a mouse IgG2a-Fc and the plates were blocked with 2% (w/v) BSA in PBST. […] 15 ul of the antibody dilution series (300 nM to 0.3 nM) were mixed with 30 μL of the pre-mixed LILRB/Avidin-HRP solution (final antibody concentration 100 nM to 0.1 nM) and incubated for 1 h at room temperature. After three wash cycles with PBST, 20 μL of the antibody/LILRB/Avidin-HRP solution was transferred to the plate with immobilized HLA-G and incubated for 15 min at room temperature. After three wash cycles with PBST, residual LILRB binding to HLA-G was detected by developing the ELISA with TMB substrate.

[2] = biological target: T2, recombinant LILRB2 ECD (human, UniProt Q8N423 22-460); assay: ELISA, LILRB2 ECD binding to HLA-G-Fc
T2 construct: also called biotinylated LILRB2 ECD
Method: as §1

[3] = biological target: T2, recombinant LILRB2 ECD; assay: BLI, IgG on AHC sensor, ECD in solution
Method: (§2) Briefly, IgGs were captured on anti-human capture (AHC) biosensors (Sartorius). […] Subsequently, the sensors were dipped into 1× Kinetics Buffer to measure the dissociation over 420 s. All sensorgrams were double referenced against 1× Kinetics Buffer and unloaded […] sensors to subtract sensor drifts and potential reference binding of the analytes. The affinities were determined by applying a 1:1 binding model.

[4] = biological target: T1, recombinant LILRB1 ECD; assay: BLI, IgG on AHC sensor, ECD in solution
Method: as §2

[5] = biological target: T3, recombinant LILRA1 ECD (human, UniProt O75019 17-461); assay: BLI, IgG on AHC sensor, ECD in solution
T3 construct: whole canonical entry named; also called LILA1
Method: as §2

[6] = biological target: T4, recombinant LILRA3 (human, UniProt Q8N6C8 24-439); assay: BLI, IgG on AHC sensor, ECD in solution
T4 construct: whole entry named; also called LILRA3 ECD; LILA3
Method: as §2

T3 sequence (O75019 17-461 limits assumed): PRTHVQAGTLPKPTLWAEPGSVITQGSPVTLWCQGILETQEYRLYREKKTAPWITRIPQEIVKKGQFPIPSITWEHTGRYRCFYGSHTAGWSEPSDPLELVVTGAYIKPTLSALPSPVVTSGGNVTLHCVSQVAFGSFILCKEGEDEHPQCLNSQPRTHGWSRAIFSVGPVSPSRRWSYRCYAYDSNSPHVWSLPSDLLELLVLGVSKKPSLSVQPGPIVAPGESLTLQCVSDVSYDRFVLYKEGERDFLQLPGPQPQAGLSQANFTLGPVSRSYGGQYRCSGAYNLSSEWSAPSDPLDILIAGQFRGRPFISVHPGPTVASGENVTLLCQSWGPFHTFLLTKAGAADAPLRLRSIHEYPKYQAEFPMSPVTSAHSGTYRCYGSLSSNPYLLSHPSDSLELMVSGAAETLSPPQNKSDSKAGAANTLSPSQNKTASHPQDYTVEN
T4 sequence (Q8N6C8 24-439 limits assumed): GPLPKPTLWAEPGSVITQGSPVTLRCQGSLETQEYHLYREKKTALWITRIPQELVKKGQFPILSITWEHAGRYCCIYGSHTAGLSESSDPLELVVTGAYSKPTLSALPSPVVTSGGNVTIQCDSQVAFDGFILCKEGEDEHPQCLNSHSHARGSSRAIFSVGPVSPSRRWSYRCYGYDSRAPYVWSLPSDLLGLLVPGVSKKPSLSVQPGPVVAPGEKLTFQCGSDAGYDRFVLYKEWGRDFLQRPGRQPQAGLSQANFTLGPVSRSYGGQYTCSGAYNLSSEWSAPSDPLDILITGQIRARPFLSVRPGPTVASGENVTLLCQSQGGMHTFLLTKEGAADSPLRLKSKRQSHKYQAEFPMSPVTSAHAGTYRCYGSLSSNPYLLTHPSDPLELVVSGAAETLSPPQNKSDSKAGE
T1 sequence (Q8NHL6 24-461 limits assumed): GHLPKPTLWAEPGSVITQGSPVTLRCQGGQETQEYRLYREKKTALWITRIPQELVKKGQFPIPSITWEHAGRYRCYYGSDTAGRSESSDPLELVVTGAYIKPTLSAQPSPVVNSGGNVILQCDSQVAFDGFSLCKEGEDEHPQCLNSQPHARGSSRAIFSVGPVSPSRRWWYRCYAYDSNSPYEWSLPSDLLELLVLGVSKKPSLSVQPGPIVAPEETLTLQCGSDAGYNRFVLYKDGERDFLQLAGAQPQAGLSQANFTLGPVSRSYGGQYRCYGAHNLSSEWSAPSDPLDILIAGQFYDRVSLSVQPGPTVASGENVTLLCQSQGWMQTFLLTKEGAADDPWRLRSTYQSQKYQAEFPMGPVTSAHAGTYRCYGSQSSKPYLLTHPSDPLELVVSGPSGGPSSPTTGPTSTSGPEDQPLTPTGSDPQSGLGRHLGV
T2 sequence (Q8N423 22-460 limits assumed): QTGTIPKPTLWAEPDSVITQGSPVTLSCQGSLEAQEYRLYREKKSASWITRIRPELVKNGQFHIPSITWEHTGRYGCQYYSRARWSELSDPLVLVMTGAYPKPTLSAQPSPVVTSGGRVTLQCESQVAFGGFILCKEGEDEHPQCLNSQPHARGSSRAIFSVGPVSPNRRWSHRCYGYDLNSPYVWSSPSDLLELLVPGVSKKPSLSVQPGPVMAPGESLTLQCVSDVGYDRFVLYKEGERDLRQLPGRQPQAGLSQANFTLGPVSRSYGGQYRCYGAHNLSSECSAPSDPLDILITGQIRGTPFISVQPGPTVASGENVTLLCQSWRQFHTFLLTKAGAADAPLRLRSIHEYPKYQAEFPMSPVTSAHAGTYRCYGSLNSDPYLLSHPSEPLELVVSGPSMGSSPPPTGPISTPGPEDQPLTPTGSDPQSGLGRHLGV

IC50 [1]: 3.3 nM | IC50 [2]: 3.6 nM | Kd [3]: 1.2 nM | Kd [4]: 11.7 nM | Kd [5]: 322 nM | Kd [6]: 255 nM
B2: A-007 (antibody, V domains shown)
VH: QVQLVQSGAEVKKPGSSVKVSCKASGGSFREYAFSWVRQAPGQGLEWMGSIIPTFHTSNYAGKFQGRVTITADESTSTAYMELSSLRSEDTAVYYCAKDLGTYSSGWPYYYGMDVWGQGTTVTVSS
VL: SYELTQPPSVSVSPGQTASITCSGDKLGDKYASWYQQKPGQSPVLVIYQDSKRPSGIPERFSGSNSGNTATLTISGTQAEDEADYYCQSTTHTSFVFGGGTKLTVL
notes: tested as IgG

IC50 [1]: 4.5 nM | IC50 [2]: 4.4 nM | Kd [3]: 1.7 nM | Kd [4]: 2.3 nM | Kd [5]: 591 nM | Kd [6]: 223 nM
B4: A-017 (antibody, V domains shown)
VH: B2 VH with S28T, R30S, E31S, F34I, S50G, T54Y, H56S, T57L, S58A, G62P
VL: B2 VL
notes: tested as IgG

IC50 [1]: 5.5 nM | IC50 [2]: 5.5 nM | Kd [3]: 3.4 nM | Kd [4]: 3.7 nM | Kd [5]: 194 nM | Kd [6]: 92.8 nM
B10: A-009 (antibody, V domains shown)
VH: QVQLVQSGAEVKKPGSSVKVSCKASGGTFSVTAILWVRQAPGQGLEWMGGIIPSFTSANYASKFQGRVTITADESTSTAYMELSSLRSEDTAVYYCAKDLGTYSSGWPYYYGMDVWGQGTTVTVSS
VL: B2 VL
notes: tested as IgG

IC50 [1]: 4.1 nM | IC50 [2]: 3.7 nM | Kd [3]: 3.3 nM | Kd [4]: 4.5 nM | Kd [5]: 760 nM | Kd [6]: 217 nM
B12: A-010 (antibody, V domains shown)
VH: B2 VH with S28T, R30Q, E31S, Y32Q, S35A, T54G, H56S, S58A, G62Q
VL: B2 VL

The remaining lines, values behind:

B1: A-008 (antibody, V domains shown)
VH: B10 VH with S30A, V31E, T32S, I52V, T56Y, S62Q
VL: B2 VL
notes: tested as IgG
IC50 [1]: 4.1 nM | IC50 [2]: 4 nM | Kd [3]: 8.8 nM | Kd [4]: 7.4 nM | Kd [5]: 1520 nM | Kd [6]: 355 nM

B3: A-006 (antibody, V domains shown)
VH: B2 VH with S28T, R30S, E31Q, T54G, H56T, G62H
VL: B2 VL
notes: tested as IgG
IC50 [1]: 6.1 nM | IC50 [2]: 4.8 nM | Kd [3]: 2.3 nM | Kd [4]: 0.5 nM | Kd [5]: 190 nM | Kd [6]: 182 nM

B5: A-046 (antibody, V domains shown)
VH: B2 VH with R30Q, E31S, F34I, S35N, S50G, T54G, H56S, S58A, G62Q
VL: B2 VL with S89L, T91H, H92L, S94I, F95Y
notes: tested as IgG
IC50 [1]: 2 nM | IC50 [2]: 3.7 nM | Kd [3]: 9.4 nM | Kd [4]: 12.6 nM | binding result [5]: no binding (tested: 900 nM)

B6: A-011 (antibody, V domains shown)
VH: B2 VH with R30S, E31H, Y32S, T54A, H56Y, S58A, G62Q
VL: B2 VL
notes: tested as IgG
IC50 [1]: 6.1 nM | IC50 [2]: 5.5 nM | Kd [3]: 4.4 nM | Kd [4]: 9.3 nM | Kd [5]: 470 nM | Kd [6]: 137 nM

B7: A-019 (antibody, V domains shown)
VH: B10 VH with G27Y, S30T, V31T, T32S, I34M, L35N, S54Y, T56S, S57T, S62P
VL: B2 VL
notes: tested as IgG
IC50 [1]: 4 nM | IC50 [2]: 4.9 nM | Kd [3]: 3.9 nM | Kd [4]: 20.7 nM | Kd [5]: 1030 nM | Kd [6]: 144 nM

B8: A-018 (antibody, V domains shown)
VH: B10 VH with V31T, T32S, L35S, S54I, T56Y, S57T, S62Q
VL: B2 VL
notes: tested as IgG
IC50 [1]: 5 nM | IC50 [2]: 5.1 nM | Kd [3]: 2.7 nM | Kd [4]: 6.2 nM | Kd [5]: 808 nM | Kd [6]: 212 nM

B9: A-014 (antibody, V domains shown)
VH: B2 VH with S28T, R30S, E31S, F34I, S35N, S50G, T54I, G62Q
VL: B2 VL
notes: tested as IgG
IC50 [1]: 3.8 nM | IC50 [2]: 4.2 nM | Kd [3]: 2.3 nM | Kd [4]: 4.4 nM | Kd [5]: 471 nM | Kd [6]: 58.8 nM

B11: A-004 (antibody, V domains shown)
VH: B10 VH with S30R, V31T, T32K, L35A, S54I, T56S, S57T, S62P
VL: B2 VL
notes: tested as IgG
IC50 [1]: 4.4 nM | IC50 [2]: 4.5 nM | Kd [3]: 7.1 nM | Kd [4]: 12.8 nM | Kd [5]: 569 nM | Kd [6]: 232 nM
